From article PMC5108039, “Functional and Structural Characterization of a Novel HLA-DRB1*04:01-Restricted α-Enolase T Cell Epitope in Rheumatoid Arthritis” (Frontiers in Immunology, 2016)
Like-named read-outs stand apart in the source and are kept apart here. Square brackets hold non-standard residues; d marks the D form. Ends that are not written are not given here. Peptide text beside a SMILES is read from it. Cit = NC(=O)NCCC[C@H](N)C(=O)O

B1: α-enolase peptide Cit1 (residues 1–15), citrullinated (peptide)
peptide: MSILKIHA[Cit]EIFDS[Cit]
B2: α-enolase peptide 241 (residues 241–255), native (peptide)
peptide: VIGMDVAASEFFRSG
B3: α-enolase peptide 1 (residues 1–15), native (peptide)
peptide: MSILKIHAREIFDSR
B4: α-enolase peptide 26 (residues 26–40), native (peptide)
peptide: TSKGLFRAAVPSGAS
B5: α-enolase peptide Cit26 (residues 26–40), citrullinated (peptide)
peptide: TSKGLF[Cit]AAVPSGAS
B6: α-enolase peptide Cit241 (residues 241–255), citrullinated (peptide)
peptide: VIGMDVAASEFF[Cit]SG
B7: α-enolase peptide 420 (residues 420–434), native (peptide)
peptide: KAKFAGRNFRNPLAK
B8: α-enolase peptide Cit171 (residues 171–185), citrullinated (peptide)
peptide: LPVGAANF[Cit]EAM[Cit]IG
B9: α-enolase peptide 326 (residues 326–340), native (peptide)
peptide: KRIAKAVNEKSCNCL
B10: α-enolase peptide Cit326 (residues 326–340), citrullinated (peptide)
peptide: K[Cit]IAKAVNEKSCNCL
modifications: cysteine pairing not given here
B11: α-enolase peptide Cit420 (residues 420–434), citrullinated (peptide)
peptide: KAKFAG[Cit]NF[Cit]NPLAK

Tests used:
HLA-DRB1*04:04 = HLA-DRB1*04:04 (Homo sapiens, UniProt P01903+P01911, A100R/A169T/F76Y/I96L/K127E/L162R/M171V/N62H/P40V/Q125Y/R42H/S133A/S149N/S66Y/V209L/W38E); assay: Competition peptide-binding assay, HLA-DRB1*04:04
Procedure: Stepwise binding analysis of 15-mer peptides derived from both native and citrullinated α-enolase to HLA-DRB1*01, *04:01, and *04:04 was performed using the ProImmune Class II Reveal assay (ProImmune, Oxford, UK). Relevant peptides were thereafter synthesized by GenScript (Piscataway, NJ, USA) and used for competition peptide-binding assays. […] Finally, peptide-binding affinity to the three different HLA alleles was assessed in direct binding assays in which N-terminally biotinylated epitopes (GenScript, Piscataway, NJ, USA) were incubated at concentrations from 5 to 0.05 μM with plate-bound relevant HLA-DRB1 molecules in the absence of a competitor peptide ([22]). The inflection point of the binding curve of a known binding epitope was used as a cutoff to separate weakly binding epitopes from background. […]

HLA-DRB1*01:01 = HLA-DRB1*01:01 (Homo sapiens, UniProt P01903+P01911, A100R/D57E/F55L/F60I/F76Y/I96L/L162R/M171V/P40L/Q125E/R42F/V115G/Y59C); assay: Competition peptide-binding assay, HLA-DRB1*01:01
Procedure: Stepwise binding analysis of 15-mer peptides derived from both native and citrullinated α-enolase to HLA-DRB1*01, *04:01, and *04:04 was performed using the ProImmune Class II Reveal assay (ProImmune, Oxford, UK). Relevant peptides were thereafter synthesized by GenScript (Piscataway, NJ, USA) and used for competition peptide-binding assays. […] Finally, peptide-binding affinity to the three different HLA alleles was assessed in direct binding assays in which N-terminally biotinylated epitopes (GenScript, Piscataway, NJ, USA) were incubated at concentrations from 5 to 0.05 μM with plate-bound relevant HLA-DRB1 molecules in the absence of a competitor peptide ([22]). The inflection point of the binding curve of a known binding epitope was used as a cutoff to separate weakly binding epitopes from background.
We decided to make use of HLA-DRB1*01:01 as a representative model for HLA-DRB1*01.

HLA-DRB1*04:01 = HLA-DRB1*04:01 (Homo sapiens, UniProt P01903+P01911, A100K/A169T/F76Y/I96L/K127E/L162R/M171V/N62H/P40V/Q125Y/R42H/S133A/S149N/S66Y/V115G/V209L/W38E); assay: biochemical
[1] = target: HLA-DRB1*01:01 (plate-bound, peptide-binding assays) (human); assay: competition peptide-binding assay on plates
[2] = target: HLA-DRB1*04:01 (plate-bound, peptide-binding assays) (human); assay: competition peptide-binding assay on plates
[3] = target: HLA-DRB1*04:04 (plate-bound, peptide-binding assays) (human); assay: competition peptide-binding assay on plates
[4] = competition with 0.02 μM biotinylated GAD65 270–285, plate-bound HLA-DRB1*04:04, increasing peptide concentrations, read-out: IC50 *04:04
[5] = competition with 0.02 μM biotinylated HA306–318, plate-bound HLA-DRB1*01:01, increasing peptide concentrations, read-out: IC50 *01:01

| Molecule | IC50 (HLA-DRB1*04:04; [4]) [nM] | IC50 (HLA-DRB1*01:01; [5]) [nM] | IC50 [1] [nM] | IC50 [2] [nM] | IC50 [3] [nM] | further results |
| --- | --- | --- | --- | --- | --- | --- |
| CC[C@H](C)[C@H](N)C(=O)N[C@@H](Cc1ccccc1)C(=O)N[C@@H](CC(=O)O)C(=O)N[C@@H](CO)C(=O)N[C@@H](CCCNC(N)=O)C(=O)NCC(=O)N[C@@H](CC(N)=O)C(=O)N1CCC[C@H]1C(=O)N[C@H](C(=O)N[C@H](C(=O)N[C@@H](CCC(=O)O)C(=O)N[C@@H](CC(=O)O)C(=O)N[C@H](C(=O)N[C@@H](CC(C)C)C(=O)N[C@@H](Cc1ccccc1)C(=O)O)C(C)C)C(C)C)[C@@H](C)O [cit11] (H-IFDS[Cit]GNPTVEDVLF-OH) | – | – | – | – | – | IC50 (HLA-DRB1*04:04): 1700 nM; IC50 (HLA-DRB1*01:01): 25000 nM |
| CC(C)C[C@H](NC(=O)CNC(=O)[C@H](CCCCN)NC(=O)[C@H](CO)NC(=O)[C@@H](N)[C@@H](C)O)C(=O)N[C@@H](Cc1ccccc1)C(=O)N[C@@H](CCCNC(N)=O)C(=O)N[C@@H](C)C(=O)N[C@@H](C)C(=O)N[C@H](C(=O)N1CCC[C@H]1C(=O)N[C@@H](CO)C(=O)NCC(=O)N[C@@H](C)C(=O)N[C@@H](CO)C(=O)O)C(C)C [cit26] (H-TSKGLF[Cit]AAVPSGAS-OH) | 500 | 1900 | – | – | – | IC50 (HLA-DRB1*04:01): 1500 nM |
| CC[C@H](C)[C@H](NC(=O)[C@@H](N)C(C)C)C(=O)NCC(=O)N[C@@H](CCSC)C(=O)N[C@@H](CC(=O)O)C(=O)N[C@H](C(=O)N[C@@H](C)C(=O)N[C@@H](C)C(=O)N[C@@H](CO)C(=O)N[C@@H](CCC(=O)O)C(=O)N[C@@H](Cc1ccccc1)C(=O)N[C@@H](Cc1ccccc1)C(=O)N[C@@H](CCCNC(N)=O)C(=O)N[C@@H](CO)C(=O)NCC(=O)O)C(C)C [cit241] (H-VIGMDVAASEFF[Cit]SG-OH) | 200 | 42000 | – | – | – | IC50 (HLA-DRB1*04:01): 2500 nM |
| CC[C@H](C)[C@H](NC(=O)[C@H](CCCNC(N)=O)NC(=O)[C@@H](N)CCCCN)C(=O)N[C@@H](C)C(=O)N[C@@H](CCCCN)C(=O)N[C@@H](C)C(=O)N[C@H](C(=O)N[C@@H](CC(N)=O)C(=O)N[C@@H](CCC(=O)O)C(=O)N[C@@H](CCCCN)C(=O)N[C@@H](CO)C(=O)N[C@@H](CS)C(=O)N[C@@H](CC(N)=O)C(=O)N[C@@H](CS)C(=O)N[C@@H](CC(C)C)C(=O)O)C(C)C [cit326] (H-K[Cit]IAKAVNEKSCNCL-OH) | 700 | > 50000 | – | – | – | – |
| CC[C@H](C)[C@H](NC(=O)[C@H](Cc1c[nH]cn1)NC(=O)[C@H](CCC(=O)O)NC(=O)[C@@H](NC(=O)[C@H](C)NC(=O)[C@H](CCCCN)NC(=O)[C@H](CO)NC(=O)[C@@H](NC(=O)CNC(=O)[C@H](CCCCN)NC(=O)CNC(=O)[C@H](CCSC)NC(=O)[C@H](Cc1ccc(O)cc1)NC(=O)[C@@H](N)CCCNC(=N)N)C(C)C)C(C)C)C(=O)N[C@@H](CC(N)=O)C(=O)O [compound 56] (H-RYMGKGVSKAVEHIN-OH; N-terminus and C-terminus assumed) | > 50000 | > 50000 | – | – | – | – |
| CC[C@H](C)[C@H](NC(=O)[C@H](CCCNC(=N)N)NC(=O)[C@H](CCSC)NC(=O)[C@H](C)NC(=O)[C@H](CCC(=O)O)NC(=O)[C@H](CCCNC(=N)N)NC(=O)[C@H](Cc1ccccc1)NC(=O)[C@H](CC(N)=O)NC(=O)[C@H](C)NC(=O)[C@H](C)NC(=O)CNC(=O)[C@@H](NC(=O)[C@@H]1CCCN1C(=O)[C@@H](N)CC(C)C)C(C)C)C(=O)NCC(=O)O [compound 171] (H-LPVGAANFREAMRIG-OH; N-terminus and C-terminus assumed) | > 50000 | > 50000 | – | – | – | – |
| CC[C@H](C)[C@H](NC(=O)[C@@H](N)C(C)C)C(=O)NCC(=O)N[C@@H](CCSC)C(=O)N[C@@H](CC(=O)O)C(=O)N[C@H](C(=O)N[C@@H](C)C(=O)N[C@@H](C)C(=O)N[C@@H](CO)C(=O)N[C@@H](CCC(=O)O)C(=O)N[C@@H](Cc1ccccc1)C(=O)N[C@@H](Cc1ccccc1)C(=O)N[C@@H](CCCNC(=N)N)C(=O)N[C@@H](CO)C(=O)NCC(=O)O)C(C)C [compound 241] (H-VIGMDVAASEFFRSG-OH) | 500 | 35000 | – | – | – | IC50 (HLA-DRB1*04:01): 2000 nM |
| CC[C@H](C)[C@H](NC(=O)[C@H](CCCCN)NC(=O)[C@H](CC(C)C)NC(=O)[C@@H](NC(=O)[C@H](CO)NC(=O)[C@@H](N)CCSC)[C@@H](C)CC)C(=O)N[C@@H](Cc1c[nH]cn1)C(=O)N[C@@H](C)C(=O)N[C@@H](CCCNC(=N)N)C(=O)N[C@@H](CCC(=O)O)C(=O)N[C@H](C(=O)N[C@@H](Cc1ccccc1)C(=O)N[C@@H](CC(=O)O)C(=O)N[C@@H](CO)C(=O)N[C@@H](CCCNC(=N)N)C(=O)O)[C@@H](C)CC [peptide 1] (H-MSILKIHAREIFDSR-OH) | > 50000 | 3500 | – | – | – | IC50 (HLA-DRB1*04:01): > 50000 nM |
| CC[C@H](C)[C@H](N)C(=O)N[C@@H](Cc1ccccc1)C(=O)N[C@@H](CC(=O)O)C(=O)N[C@@H](CO)C(=O)N[C@@H](CCCNC(=N)N)C(=O)NCC(=O)N[C@@H](CC(N)=O)C(=O)N1CCC[C@H]1C(=O)N[C@H](C(=O)N[C@H](C(=O)N[C@@H](CCC(=O)O)C(=O)N[C@@H](CC(=O)O)C(=O)N[C@H](C(=O)N[C@@H](CC(C)C)C(=O)N[C@@H](Cc1ccccc1)C(=O)O)C(C)C)C(C)C)[C@@H](C)O [peptide 11] (H-IFDSRGNPTVEDVLF-OH; N-terminus and C-terminus assumed) | > 50000 | > 50000 | – | – | – | – |
| CC[C@H](C)[C@H](NC(=O)[C@H](CCCNC(=N)N)NC(=O)[C@@H](N)CCCCN)C(=O)N[C@@H](C)C(=O)N[C@@H](CCCCN)C(=O)N[C@@H](C)C(=O)N[C@H](C(=O)N[C@@H](CC(N)=O)C(=O)N[C@@H](CCC(=O)O)C(=O)N[C@@H](CCCCN)C(=O)N[C@@H](CO)C(=O)N[C@@H](CS)C(=O)N[C@@H](CC(N)=O)C(=O)N[C@@H](CS)C(=O)N[C@@H](CC(C)C)C(=O)O)C(C)C [peptide 326] (H-KRIAKAVNEKSCNCL-OH) | 700 | > 50000 | – | – | – | – |
| α-enolase peptide Cit11 (residues 11–25), citrullinated | – | – | 25000 | 2200 | 1700 | – |
| B1 | – | – | > 50000 | – | > 50000 | – |
| B2 | – | – | 35000 | 2000 | 500 | – |
| B3 | – | – | 3500 | – | > 50000 | – |
| B4 | – | – | 1400 | 4000 | 500 | – |
| B5 | – | – | 1900 | 1500 | 500 | – |
| B6 | – | – | 42000 | 2500 | 200 | – |
| B7 | – | – | > 50000 | > 50000 | 25000 | – |
| B8 | – | – | – | – | > 50000 | – |
| B9 | – | – | > 50000 | 1700 | 700 | – |
| B10 | – | – | > 50000 | 1900 | 700 | – |
| B11 | – | – | > 50000 | > 50000 | 28000 | – |
